# B1: AARS1 promoter probe (dsDNA)
# DNA 1: CAGACAGGGCCTCGCTCTGTCGCCCAAGGAATGCAGTGTCACGATCAGGGCTCACTGCAG
# DNA 2: CTGCAGTGAGCCCTGATCGTGACACTGCATTCCTTGGGCGACAGAGCGAGGCCCTGTCTG
# What was measured:
# AARS1^455 = target: T1, AARS1^455 (Homo sapiens, UniProt P49588); assay: in vitro histone lactylation, pan-Klac immunoblot / mass spectrometry; format: biochemical; conditions: lactate and ATP present; dose-dependent; construct in Supplemental Figure 1F not told
# T1 construct: catalytic domain, residues 1-455, purified recombinant; tags and host only in supplement
# T1 sequence (P49588 1-455): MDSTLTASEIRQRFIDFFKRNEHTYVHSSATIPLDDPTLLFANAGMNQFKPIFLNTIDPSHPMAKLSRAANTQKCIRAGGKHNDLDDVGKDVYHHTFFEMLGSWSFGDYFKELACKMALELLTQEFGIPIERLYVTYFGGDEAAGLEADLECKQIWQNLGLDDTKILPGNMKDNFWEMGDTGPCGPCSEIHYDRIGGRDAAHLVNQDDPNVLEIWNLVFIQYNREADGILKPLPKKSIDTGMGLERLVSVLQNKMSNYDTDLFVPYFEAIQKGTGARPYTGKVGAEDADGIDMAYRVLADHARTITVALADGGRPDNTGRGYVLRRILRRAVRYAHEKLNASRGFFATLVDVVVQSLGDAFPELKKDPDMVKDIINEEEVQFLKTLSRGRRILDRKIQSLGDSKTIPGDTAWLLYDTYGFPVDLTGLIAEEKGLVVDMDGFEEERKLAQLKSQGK
# TEAD1 = TEAD1 (UniProt P28347 1-426); assay: EMSA; 10 mM Tris-HCl pH 7.5, 50 mM KCl, 1 mM DTT, 2% glycerol, 25 C, 1 h; conditions: protein: recombinant; (HS-TEAD1 in pull-down)
# TEAD1, sequence (P28347 whole entry): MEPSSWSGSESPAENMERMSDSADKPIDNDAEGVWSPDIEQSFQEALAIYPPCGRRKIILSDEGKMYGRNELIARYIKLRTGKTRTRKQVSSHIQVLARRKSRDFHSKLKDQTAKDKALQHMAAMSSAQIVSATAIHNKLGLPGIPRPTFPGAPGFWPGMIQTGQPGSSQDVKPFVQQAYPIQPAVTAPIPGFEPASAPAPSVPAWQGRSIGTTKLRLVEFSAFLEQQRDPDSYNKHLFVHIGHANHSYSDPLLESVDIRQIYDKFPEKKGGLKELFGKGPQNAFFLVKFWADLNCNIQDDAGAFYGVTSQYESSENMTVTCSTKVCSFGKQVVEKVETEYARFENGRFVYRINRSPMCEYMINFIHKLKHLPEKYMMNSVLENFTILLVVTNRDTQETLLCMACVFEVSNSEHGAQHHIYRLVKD
# YAP (1-291) = YAP (1-291) (UniProt P46937 1-291); assay: EMSA; YAP alone; 10 mM Tris-HCl pH 7.5, 50 mM KCl, 1 mM DTT, 2% glycerol, 25 C, 1 h; conditions: protein: recombinant; tags: MBP
# TEAD1;YAP (1-291) = TEAD1;YAP (1-291) (human?;human?, UniProt P28347;P46937 1-426;1-291, |); assay: EMSA; supershift of probe by YAP-TEAD1; 10 mM Tris-HCl pH 7.5, 50 mM KCl, 1 mM DTT, 2% glycerol, 25 C, 1 h; conditions: protein: recombinant;recombinant; (HS-TEAD1 in pull-down); copies: 1;1
molecule,measurement,setting,value
Nc1ncnc2c1ncn2[C@@H]1O[C@H](COP(=O)(O)O)[C@@H](O)[C@H]1O [AMP],inhibition,AARS1^455,"inclusion of PPi, AMP, and the synthetic lactyl-AMS"
O=P(O)(O)OP(=O)(O)O [PPi],inhibition,AARS1^455,"inclusion of PPi, AMP, and the synthetic lactyl-AMS"
B1,binding result,TEAD1,binds
same,binding result,YAP (1-291),no binding
same,binding result,TEAD1;YAP (1-291),binds

# Reference: publication PMC11093599 (The Journal of Clinical Investigation, 2024)
